Numbering of substitutions follows the chain as printed. Names and notes keep the numbering of the source. Like-named read-outs stand apart in the source and are kept apart here. Values belong to the binder of their own block, whether it stands above or below them.
Legend:
Experiment in all cases: cell-based or functional assay
[1] = target: T1, human IL-12 receptor complex (IL-12Rβ1 and IL-12Rβ2) (human, UniProt P42701 24-662; Q99665 24-862)
[2] = target: T2, human PD-1 on cells (HEK-PD-1 reporter cells; activated PBMC) (human, UniProt Q15116 25-288)
[3] = target: T1, human IL-12 receptor complex (IL-12Rβ1 …); remark: listed apart in the source
[4] = target: T3, human TIGIT on HEK-Blue reporter cells (human, UniProt Q495A1 22-244)
T3 sequence (looked up): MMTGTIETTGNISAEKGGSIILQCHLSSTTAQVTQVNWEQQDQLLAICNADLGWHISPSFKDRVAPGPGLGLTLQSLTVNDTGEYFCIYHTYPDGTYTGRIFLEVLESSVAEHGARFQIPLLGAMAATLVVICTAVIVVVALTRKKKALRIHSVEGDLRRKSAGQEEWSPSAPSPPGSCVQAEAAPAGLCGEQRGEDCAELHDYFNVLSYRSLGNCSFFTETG

[5] = target: T4, human IL-2 receptor (IL-2Rα, IL-2Rβ, IL-2Rγ) (human, UniProt P01589 22-272; P14784 27-551; P31785 23-369)
T4 sequence (looked up) 1: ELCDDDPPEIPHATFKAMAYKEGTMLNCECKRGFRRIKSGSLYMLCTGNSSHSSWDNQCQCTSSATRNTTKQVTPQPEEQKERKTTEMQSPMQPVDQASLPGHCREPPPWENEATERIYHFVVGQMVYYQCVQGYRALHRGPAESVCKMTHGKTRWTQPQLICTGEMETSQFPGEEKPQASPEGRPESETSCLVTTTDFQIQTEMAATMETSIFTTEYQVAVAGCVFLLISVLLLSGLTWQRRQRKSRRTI
T4 sequence (looked up) 2: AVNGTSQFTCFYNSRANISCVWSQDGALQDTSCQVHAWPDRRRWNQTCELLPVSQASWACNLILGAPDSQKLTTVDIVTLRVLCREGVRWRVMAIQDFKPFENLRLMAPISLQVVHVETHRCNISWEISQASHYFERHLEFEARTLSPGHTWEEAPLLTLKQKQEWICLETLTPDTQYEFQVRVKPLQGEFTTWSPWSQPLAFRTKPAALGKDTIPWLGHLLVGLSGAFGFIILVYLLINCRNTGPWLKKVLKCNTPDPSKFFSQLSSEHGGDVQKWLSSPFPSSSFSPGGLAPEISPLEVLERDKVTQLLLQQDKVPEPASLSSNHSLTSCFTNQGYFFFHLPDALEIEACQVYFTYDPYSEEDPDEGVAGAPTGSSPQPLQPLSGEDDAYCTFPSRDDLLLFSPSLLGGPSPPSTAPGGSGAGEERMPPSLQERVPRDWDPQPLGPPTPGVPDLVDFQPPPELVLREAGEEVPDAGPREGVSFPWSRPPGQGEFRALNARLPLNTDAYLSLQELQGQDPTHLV
T4 sequence (looked up) 3: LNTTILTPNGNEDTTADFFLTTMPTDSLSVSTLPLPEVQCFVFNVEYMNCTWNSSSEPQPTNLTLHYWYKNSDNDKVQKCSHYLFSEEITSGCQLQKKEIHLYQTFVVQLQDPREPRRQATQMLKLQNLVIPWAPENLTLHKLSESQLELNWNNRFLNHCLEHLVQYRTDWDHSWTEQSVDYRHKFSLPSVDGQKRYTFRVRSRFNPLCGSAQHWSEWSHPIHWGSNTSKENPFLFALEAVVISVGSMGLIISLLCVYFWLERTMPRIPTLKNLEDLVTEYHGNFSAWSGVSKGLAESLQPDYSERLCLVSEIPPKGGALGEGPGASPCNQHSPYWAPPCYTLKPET

[6] = target: T4, human IL-2 receptor (IL-2Rα, IL-2Rβ, …); remark: listed apart in the source
[7] = target: T2, human PD-1 on cells (HEK-PD-1 reporter …); remark: listed apart in the source

T2 sequence (Q15116 25-288): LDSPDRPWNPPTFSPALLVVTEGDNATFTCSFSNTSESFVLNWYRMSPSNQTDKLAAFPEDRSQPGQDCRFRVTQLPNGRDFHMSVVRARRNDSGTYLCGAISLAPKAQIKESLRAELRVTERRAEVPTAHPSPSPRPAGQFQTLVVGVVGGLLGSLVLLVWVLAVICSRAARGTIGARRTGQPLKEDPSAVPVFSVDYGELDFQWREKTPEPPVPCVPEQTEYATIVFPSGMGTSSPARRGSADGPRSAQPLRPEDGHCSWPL
T1 sequence (Q99665 24-862, chain 2 of 2, other chains not shown): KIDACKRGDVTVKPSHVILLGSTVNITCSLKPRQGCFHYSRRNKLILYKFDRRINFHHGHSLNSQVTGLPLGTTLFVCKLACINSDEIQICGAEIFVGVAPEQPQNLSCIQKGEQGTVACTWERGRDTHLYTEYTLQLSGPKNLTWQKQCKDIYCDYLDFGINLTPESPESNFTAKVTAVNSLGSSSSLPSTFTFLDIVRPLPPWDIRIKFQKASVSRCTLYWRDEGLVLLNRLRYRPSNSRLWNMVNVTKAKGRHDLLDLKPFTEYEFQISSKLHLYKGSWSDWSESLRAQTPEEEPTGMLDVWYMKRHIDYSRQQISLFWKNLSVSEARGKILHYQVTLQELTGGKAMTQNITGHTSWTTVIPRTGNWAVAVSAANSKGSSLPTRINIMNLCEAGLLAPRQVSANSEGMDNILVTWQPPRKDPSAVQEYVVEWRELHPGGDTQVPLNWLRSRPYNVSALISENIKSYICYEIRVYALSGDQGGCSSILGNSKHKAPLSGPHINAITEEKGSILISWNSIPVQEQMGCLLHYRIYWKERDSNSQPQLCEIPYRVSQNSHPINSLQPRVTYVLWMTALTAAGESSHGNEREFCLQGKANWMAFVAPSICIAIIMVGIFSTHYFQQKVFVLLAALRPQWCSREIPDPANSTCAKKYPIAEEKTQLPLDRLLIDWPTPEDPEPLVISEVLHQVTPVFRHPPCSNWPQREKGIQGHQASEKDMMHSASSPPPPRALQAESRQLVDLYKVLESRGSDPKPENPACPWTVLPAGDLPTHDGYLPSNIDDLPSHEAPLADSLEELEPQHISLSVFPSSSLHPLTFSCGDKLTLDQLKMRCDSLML

B4: IL-2(L18R/Q22E/R38D/K43E/E61R/Q126T)/CD155-Fc/IL-12(E59A/F60A) (Fc fusion)
chain 1: WPPPGTGDVVVQAPTQVPGFLGDSVTLPCYLQVPNMEVTHVSQLTWARHGESGSMAVFHQTQGPSYSESKRLEFVAARLGAELRNASLRMFGLRVEDEGNYTCLFVTFPQGSRSVDIWLRVLAKPQNTAEVQKVQLTGEPVPMARCVSTGGRPPAQITWHSDLGGMPNTSQVPGFLSGTVTVTSLWILVPSSQVDGKNVTCKVEHESFEKPQLLTVNLTVYYPPEVSISGYDNNWYLGQNEATLTCDARSNPEPTGYNWSTTMGPLPPFAVAQGAQLLIRPVDKPINTTLICNVTNALGARQAELTVQVKEGPPSEHSGISRNGGGGSGGGDKTHTCPPCPAPEDEGGPSVFLFPPKPKDTLMISRTPEVTCVVVDVSHEDPEVKFNWYVDGVEVHNAKTKPREEQYNSTYRVVSVLTVLHQDWLNGKEYKCKVSNKALPAPIEKTISKAKGQPREPQVYVYPPSREEMTKNQVSLTCLVKGFYPSDIAVEWESNGQPENNYKTTPPVLDEDGSFALVSKLTVDKSRWQQGNVFSCSVMHEALHNHYTQKSLSLSPGKGGGGSGGGIWELKKDVYVVELDWYPDAPGEMVVLTCDTPEEDGITWTLDQSSEVLGSGKTLTIQVKAAGDAGQYTCHKGGEVLSHSLLLLHKKEDGIWSTDILKDQKEPKNKTFLRCEAKNYSGRFTCWWLTTISTDLTFSVKSSRGSSDPQGVTCGAATLSAERVRGDNKEYEYSVECQEDSACPAAEESLPIEVMVDAVHKLKYENYTSSFFIRDIIKPDPPKNLQLKPLKNSRQVEVSWEYPDTWSTPHSYFSLTFCVQVQGKSKREKKDRVFTDKTSATVICRKNASISVRAQDRYYSSSWSEWASVPCSGGGGSGGGSGGGGSRNLPVATPDPGMFPCLHHSQNLLRAVSNMLQKARQTLEFYPCTSEEIDHEDITKDKTSTVEACLPLELTKNESCLNSRETSFITNGSCLASRKTSFMMALCLSSIYEDLKMYQVEFKTMNAKLLMDPKRQIFLDQNMLAVIDELMQALNFNSETVPQKSSLEEPDFYKTKIKLCILLHAFRIRAVTIDRVMSYLNAS
chain 2: WPPPGTGDVVVQAPTQVPGFLGDSVTLPCYLQVPNMEVTHVSQLTWARHGESGSMAVFHQTQGPSYSESKRLEFVAARLGAELRNASLRMFGLRVEDEGNYTCLFVTFPQGSRSVDIWLRVLAKPQNTAEVQKVQLTGEPVPMARCVSTGGRPPAQITWHSDLGGMPNTSQVPGFLSGTVTVTSLWILVPSSQVDGKNVTCKVEHESFEKPQLLTVNLTVYYPPEVSISGYDNNWYLGQNEATLTCDARSNPEPTGYNWSTTMGPLPPFAVAQGAQLLIRPVDKPINTTLICNVTNALGARQAELTVQVKEGPPSEHSGISRNGGGSGAPTSSSTKKTQLQLEHLRLDLEMILNGINNYKNPKLTDMLTFEFYMPKKATELKHLQCLERELKPLEEVLNLAQSKNFHLRPRDLISNINVIVLELKGSETTFMCEYADETATIVEFLNRWITFCTSIISTLTGGGGSGGGDKTHTCPPCPAPEKKGGPSVFLFPPKPKDTLMISRTPEVTCVVVDVSHEDPEVKFNWYVDGVEVHNAKTKPREEQYNSTYRVVSVLTVLHQDWLNGKEYKCKVSNKALPAPIEKTISKAKGQPREPQVYVLPPSREEMTKNQVSLLCLVKGFYPSDIAVEWESNGQPENRYMTWPPVLDSDGSFFLYSKLTVDKSRWQQGNVFSCSVMHEALHNHYTQKSLSLSPGK
IL-12 signal transduction, HEK-IL-12 [3]: < 0.2% | IL-2 signal transduction, HEK-IL-2-TIGIT [4]: 18% | IL-12 signal transduction, HEK-IL-12-TIGIT [4]: 29% | IL-2 signal transduction, HEK-IL-2 [5]: 5%

B5: IL-2(L18R/Q22E/R38D/K43E/E61R/Q126T/S130R)/CD155-Fc/IL-12(E59A/F60A) (Fc fusion)
chain 1: B4 chain 1
chain 2: B4 chain 2 with S458R
IL-12 signal transduction, HEK-IL-12 [3]: 3% | IL-2 signal transduction, HEK-IL-2-TIGIT [4]: < 0.1% | IL-12 signal transduction, HEK-IL-12-TIGIT [4]: 24% | IL-2 signal transduction, HEK-IL-2 [5]: < 0.1%

B6: IL-2(R38D/K43E/E61R)/PD-L1(mut2)-Fc (Fc fusion)
chain 1: FTVTVPKDLYVVEYGSNMTIECKFPVEKQLDLAALQVYWMMEDKNIIQFVHGEEDLKVQHSSYRQRARLLKDQLSLGNAALQITDVKLQDAGVYTCLIAYKGADYKRITVKVNAPYNKINQRILVVDPVTSEHELTCQAEGYPKAEVIWTSSDHQVLSGKTTTTNSKREEKLFNVTSTLRINTTTNEIFYCTFRRLDPEENHTAELVIPELPLAHPPNERGGGGSGGGDKTHTCPPCPAPEDEGGPSVFLFPPKPKDTLMISRTPEVTCVVVDVSHEDPEVKFNWYVDGVEVHNAKTKPREEQYNSTYRVVSVLTVLHQDWLNGKEYKCKVSNKALPAPIEKTISKAKGQPREPQVYVYPPSREEMTKNQVSLTCLVKGFYPSDIAVEWESNGQPENNYKTTPPVLDEDGSFALVSKLTVDKSRWQQGNVFSCSVMHEALHNHYTQKSLSLSPGK
chain 2: FTVTVPKDLYVVEYGSNMTIECKFPVEKQLDLAALQVYWMMEDKNIIQFVHGEEDLKVQHSSYRQRARLLKDQLSLGNAALQITDVKLQDAGVYTCLIAYKGADYKRITVKVNAPYNKINQRILVVDPVTSEHELTCQAEGYPKAEVIWTSSDHQVLSGKTTTTNSKREEKLFNVTSTLRINTTTNEIFYCTFRRLDPEENHTAELVIPELPLAHPPNERGGGSGAPTSSSTKKTQLQLEHLLLDLQMILNGINNYKNPKLTDMLTFEFYMPKKATELKHLQCLERELKPLEEVLNLAQSKNFHLRPRDLISNINVIVLELKGSETTFMCEYADETATIVEFLNRWITFCQSIISTLTGGGGSGGGDKTHTCPPCPAPEKKGGPSVFLFPPKPKDTLMISRTPEVTCVVVDVSHEDPEVKFNWYVDGVEVHNAKTKPREEQYNSTYRVVSVLTVLHQDWLNGKEYKCKVSNKALPAPIEKTISKAKGQPREPQVYVLPPSREEMTKNQVSLLCLVKGFYPSDIAVEWESNGQPENRYMTWPPVLDSDGSFFLYSKLTVDKSRWQQGNVFSCSVMHEALHNHYTQKSLSLSPGK
IL-2 signal transduction, HEK-IL-2 [6]: 16% | IL-2 signal transduction, HEK-IL-2-PD-1 [7]: 76%

B7: IL-2(L18R/Q22E/R38D/K43E/E61R)/PD-L1(mut2)-Fc (Fc fusion)
chain 1: B6 chain 1
chain 2: B6 chain 2 with L243R, Q247E
IL-2 signal transduction, HEK-IL-2 [6]: 4% | IL-2 signal transduction, HEK-IL-2-PD-1 [7]: 35%

B8: IL-2(L18R/Q22E/R38D/K43E/E61R/Q126T)/PD-L1(mut2)-Fc (Fc fusion)
chain 1: B6 chain 1
chain 2: B6 chain 2 with L243R, Q247E, Q351T
IL-2 signal transduction, HEK-IL-2 [6]: < 0.1% | IL-2 signal transduction, HEK-IL-2-PD-1 [7]: 5%

Next, values leading:

IL-12 signal transduction, HEK IL-12 [1]: < 0.2% | IFN-γ release, activated PBMC [2]: 12 ng/mL | IL-12 signal transduction, HEK-IL-12-PD-1 (high) [2]: 3% | IL-12 signal transduction, HEK-IL-12-PD-1 (low) [2]: < 0.2%
B1: IL-12(E59A/F60A)/anti-PD-1(N99A) (antibody)
light: not shown
heavy: not shown
heavy (part 1 of 2): QVQLVESGGGVVQPGRSLRLDCKASGITFSNSGMHWVRQAPGKGLEWVAVIWYDGSKRYYADSVKGRFTISRDNSKNTLFLQMNSLRAEDTAVYYCATADDYWGQGTLVTVSSAS
heavy (part 2 of 2): EPKSCDKTHTCPPCPAPEKKGGPSVFLFPPKPKDTLMISRTPEVTCVVVDVSHEDPEVKFNWYVDGVEVHNAKTKPREEQYNSTYRVVSVLTVLHQDWLNGKEYKCKVSNKALPAPIEKTISKAKGQPREPQVYVLPPSREEMTKNQVSLLCLVKGFYPSDIAVEWESNGQPENRYMTWPPVLDSDGSFFLYSKLTVDKSRWQQGNVFSCSVMHEALHNHYTQKSLSLSPGK

IL-12 signal transduction, HEK IL-12 [1]: < 0.2% | IFN-γ release, activated PBMC [2]: 13 ng/mL | IL-12 signal transduction, HEK-IL-12-PD-1 (high) [2]: < 0.2% | IL-12 signal transduction, HEK-IL-12-PD-1 (low) [2]: < 0.2%
B2: IL-12(E59A/F60A)/anti-PD-1(N99M) (antibody)
light: not shown
heavy: not shown
heavy (part 1 of 2): B1 heavy (part 1 of 2) with A99M
heavy (part 2 of 2): B1 heavy (part 2 of 2)

IL-12 signal transduction, HEK-IL-12 [3]: 2% | IL-2 signal transduction, HEK-IL-2-TIGIT [4]: 28% | IL-12 signal transduction, HEK-IL-12-TIGIT [4]: 32% | IL-2 signal transduction, HEK-IL-2 [5]: 3%
B3: IL-2(R38D/K43E/E61R/Q126T)/CD155-Fc/IL-12(E59A/F60A) (Fc fusion)
chain 1: B4 chain 1
chain 2: B4 chain 2 with R346L, E350Q

IL-2 signal transduction, HEK-IL-2 [6]: 2% | IL-2 signal transduction, HEK-IL-2-PD-1 [7]: 20%
B9: IL-2(R38D/K43E/E61R/Q126T)/PD-L1(mut2)-Fc (Fc fusion)
chain 1: B6 chain 1
chain 2: B6 chain 2 with Q351T

— patent publication US20240392004A1 (IMMUNOWAKE, published 2024)
